# Reference: the supplement of paper PMC10065799, “High-throughput profiling of sequence recognition by tyrosine kinases and SH2 domains using bacterial peptide display” (eLife, 2023)
# Columns and labels:
# SHP2-C SH2 = test: SH2 binding enrichment of the phosphorylated peptide, bacterial display (enrichment ratio); higher = better substrate or ligand; peptides without Tyr show the background
# Grb2 SH2 = Grb2 SH2 (UniProt P62993); test: as above
# c-Src SH2 = test: as above
# EPHB1 = EPHB1 (UniProt P54762); test: phosphorylation enrichment, bacterial display (enrichment ratio); higher = better substrate or ligand; peptides without Tyr show the background
# Fes = Fes (UniProt P07332); test: as above
# Fyn = Fyn (UniProt P06241); test: as above
# Jak2 = Jak2 (UniProt O60674); test: as above
# Hck = Hck (UniProt P08631); test: as above
# AncSZ = test: as above
# MERTK = MERTK (UniProt Q12866); test: as above
# c-Abl (mouse) = test: as above
# c-Src = test: as above
# FGFR1 = FGFR1 (UniProt P11362); test: as above
# EPHB2 = EPHB2 (UniProt P29323); test: as above
# FGFR3 = FGFR3 (UniProt P22607); test: as above
# Fer (mouse) = test: as above
# 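For SH2 binding enrichment of the phosphorylated peptide, bacterial display in this document: peptide library displayed on the E. coli surface as eCPX fusions, selected cells deep-sequenced, score is each peptide's frequency after selection divided by its frequency in the input.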
# 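For phosphorylation enrichment, bacterial display in this document: 11-residue human phosphosite peptides and single-mutation variants displayed on the E. coli surface, counted by deep sequencing, each peptide's frequency after selection divided by its frequency in the unselected input library; frequency after pTyr selection over input frequency; kinase dosed for 20-30% of maximal phosphorylation in three min.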
# Chain of Hck (P08631 whole entry, looked up): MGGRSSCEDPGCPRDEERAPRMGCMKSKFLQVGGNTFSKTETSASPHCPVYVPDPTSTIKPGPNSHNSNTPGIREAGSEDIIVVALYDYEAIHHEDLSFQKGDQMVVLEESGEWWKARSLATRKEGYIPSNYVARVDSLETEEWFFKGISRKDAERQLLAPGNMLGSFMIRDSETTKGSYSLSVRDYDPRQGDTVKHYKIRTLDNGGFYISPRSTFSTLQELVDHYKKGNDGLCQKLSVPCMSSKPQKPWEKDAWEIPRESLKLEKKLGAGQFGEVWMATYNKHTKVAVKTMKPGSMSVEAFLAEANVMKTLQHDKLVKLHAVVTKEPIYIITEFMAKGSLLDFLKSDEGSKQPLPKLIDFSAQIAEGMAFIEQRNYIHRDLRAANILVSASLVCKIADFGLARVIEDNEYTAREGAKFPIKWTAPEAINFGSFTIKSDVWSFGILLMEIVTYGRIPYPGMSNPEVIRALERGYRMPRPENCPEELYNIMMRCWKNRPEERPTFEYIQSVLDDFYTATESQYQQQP
# Chain of Fes (P07332 whole entry, looked up): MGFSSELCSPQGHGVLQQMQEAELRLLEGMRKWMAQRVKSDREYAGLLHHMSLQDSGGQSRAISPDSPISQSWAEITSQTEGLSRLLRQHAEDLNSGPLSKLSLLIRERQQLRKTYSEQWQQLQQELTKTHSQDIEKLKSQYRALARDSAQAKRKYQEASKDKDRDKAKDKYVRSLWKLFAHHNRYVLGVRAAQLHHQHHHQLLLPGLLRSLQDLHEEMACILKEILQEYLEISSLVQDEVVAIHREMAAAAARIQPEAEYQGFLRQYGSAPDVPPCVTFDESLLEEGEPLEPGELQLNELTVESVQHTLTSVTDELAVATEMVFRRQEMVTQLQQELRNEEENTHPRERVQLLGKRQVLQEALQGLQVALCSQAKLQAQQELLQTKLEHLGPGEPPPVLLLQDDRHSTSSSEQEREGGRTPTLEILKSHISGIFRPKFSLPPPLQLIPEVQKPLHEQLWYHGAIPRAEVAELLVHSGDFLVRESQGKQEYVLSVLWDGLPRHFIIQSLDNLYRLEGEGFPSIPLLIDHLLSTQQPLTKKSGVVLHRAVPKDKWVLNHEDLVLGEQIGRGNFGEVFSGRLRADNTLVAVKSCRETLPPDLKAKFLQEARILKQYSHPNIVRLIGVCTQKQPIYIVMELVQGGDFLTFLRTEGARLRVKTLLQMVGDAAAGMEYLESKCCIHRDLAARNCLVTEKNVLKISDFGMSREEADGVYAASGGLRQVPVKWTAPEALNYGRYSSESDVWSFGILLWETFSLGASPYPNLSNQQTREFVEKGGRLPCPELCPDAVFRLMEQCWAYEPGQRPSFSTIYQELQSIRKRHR
# Chain of FGFR3 (P22607 whole entry, looked up): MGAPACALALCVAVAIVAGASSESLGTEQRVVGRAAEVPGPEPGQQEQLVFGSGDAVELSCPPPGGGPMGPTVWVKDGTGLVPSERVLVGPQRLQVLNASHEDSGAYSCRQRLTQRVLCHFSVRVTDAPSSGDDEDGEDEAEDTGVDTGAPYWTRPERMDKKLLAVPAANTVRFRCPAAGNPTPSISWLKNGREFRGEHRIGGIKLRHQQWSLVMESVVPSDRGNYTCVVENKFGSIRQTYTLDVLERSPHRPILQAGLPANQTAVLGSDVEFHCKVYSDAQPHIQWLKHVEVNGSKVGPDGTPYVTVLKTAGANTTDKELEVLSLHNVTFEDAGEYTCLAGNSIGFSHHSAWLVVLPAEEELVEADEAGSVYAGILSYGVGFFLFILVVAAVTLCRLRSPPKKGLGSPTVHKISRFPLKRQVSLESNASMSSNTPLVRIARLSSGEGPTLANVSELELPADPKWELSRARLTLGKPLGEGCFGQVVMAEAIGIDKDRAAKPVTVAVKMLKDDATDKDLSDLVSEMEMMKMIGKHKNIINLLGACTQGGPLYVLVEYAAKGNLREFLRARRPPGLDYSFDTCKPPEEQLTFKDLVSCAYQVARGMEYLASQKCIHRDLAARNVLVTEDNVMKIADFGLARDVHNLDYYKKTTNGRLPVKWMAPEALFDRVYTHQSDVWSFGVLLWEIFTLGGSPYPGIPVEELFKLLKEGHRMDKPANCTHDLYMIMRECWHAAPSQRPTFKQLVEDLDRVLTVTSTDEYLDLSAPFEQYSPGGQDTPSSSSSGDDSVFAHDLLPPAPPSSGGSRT
# Chain of Grb2 SH2 (P62993 whole entry, looked up): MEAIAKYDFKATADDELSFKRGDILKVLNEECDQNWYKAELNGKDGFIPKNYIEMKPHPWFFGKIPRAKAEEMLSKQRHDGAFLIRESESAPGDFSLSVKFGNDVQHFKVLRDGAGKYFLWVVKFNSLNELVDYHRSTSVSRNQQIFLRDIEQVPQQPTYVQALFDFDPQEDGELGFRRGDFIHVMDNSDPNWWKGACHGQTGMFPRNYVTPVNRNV
# Chain of Fyn (P06241 whole entry, looked up): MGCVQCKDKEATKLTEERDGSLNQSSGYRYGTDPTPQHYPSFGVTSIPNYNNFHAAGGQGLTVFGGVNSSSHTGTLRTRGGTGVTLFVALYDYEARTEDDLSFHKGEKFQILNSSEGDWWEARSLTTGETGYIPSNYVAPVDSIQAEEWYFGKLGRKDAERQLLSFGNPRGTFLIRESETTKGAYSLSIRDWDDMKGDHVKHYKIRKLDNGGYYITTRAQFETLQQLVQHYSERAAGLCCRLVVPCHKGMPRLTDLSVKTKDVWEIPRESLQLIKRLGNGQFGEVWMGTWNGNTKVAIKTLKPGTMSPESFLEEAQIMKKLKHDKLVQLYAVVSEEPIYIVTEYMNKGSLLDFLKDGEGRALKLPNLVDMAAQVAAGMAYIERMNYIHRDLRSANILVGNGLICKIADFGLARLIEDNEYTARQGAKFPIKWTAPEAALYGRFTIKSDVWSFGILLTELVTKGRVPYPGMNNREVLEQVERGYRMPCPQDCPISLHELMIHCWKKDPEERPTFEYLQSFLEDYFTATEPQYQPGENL
# Chain of EPHB1 (P54762 whole entry, looked up): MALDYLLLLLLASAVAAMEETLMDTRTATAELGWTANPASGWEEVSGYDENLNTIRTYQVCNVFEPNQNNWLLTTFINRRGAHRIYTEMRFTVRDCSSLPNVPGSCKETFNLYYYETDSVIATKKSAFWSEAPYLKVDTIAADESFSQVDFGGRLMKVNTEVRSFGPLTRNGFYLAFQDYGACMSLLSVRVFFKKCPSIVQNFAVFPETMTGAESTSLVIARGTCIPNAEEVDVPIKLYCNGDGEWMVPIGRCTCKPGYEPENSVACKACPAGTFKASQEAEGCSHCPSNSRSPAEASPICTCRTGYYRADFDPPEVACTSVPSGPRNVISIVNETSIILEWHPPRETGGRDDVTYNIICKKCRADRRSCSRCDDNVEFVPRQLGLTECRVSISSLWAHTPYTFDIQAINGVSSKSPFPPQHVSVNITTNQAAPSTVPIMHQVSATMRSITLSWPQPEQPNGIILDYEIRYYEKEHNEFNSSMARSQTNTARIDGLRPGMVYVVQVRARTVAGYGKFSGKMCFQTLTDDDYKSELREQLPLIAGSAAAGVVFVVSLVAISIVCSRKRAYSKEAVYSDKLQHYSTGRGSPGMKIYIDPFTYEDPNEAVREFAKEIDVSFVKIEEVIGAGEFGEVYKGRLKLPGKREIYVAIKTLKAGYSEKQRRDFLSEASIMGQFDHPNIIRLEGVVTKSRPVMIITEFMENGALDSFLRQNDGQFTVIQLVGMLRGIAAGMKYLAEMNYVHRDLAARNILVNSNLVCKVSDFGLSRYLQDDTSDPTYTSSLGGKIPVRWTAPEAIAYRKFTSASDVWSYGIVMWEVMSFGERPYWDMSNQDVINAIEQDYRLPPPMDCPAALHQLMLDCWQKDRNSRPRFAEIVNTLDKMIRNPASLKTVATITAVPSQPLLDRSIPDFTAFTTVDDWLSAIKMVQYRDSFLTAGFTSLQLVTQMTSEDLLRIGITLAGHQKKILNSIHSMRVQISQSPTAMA
# Chain of FGFR1 (P11362 whole entry, looked up): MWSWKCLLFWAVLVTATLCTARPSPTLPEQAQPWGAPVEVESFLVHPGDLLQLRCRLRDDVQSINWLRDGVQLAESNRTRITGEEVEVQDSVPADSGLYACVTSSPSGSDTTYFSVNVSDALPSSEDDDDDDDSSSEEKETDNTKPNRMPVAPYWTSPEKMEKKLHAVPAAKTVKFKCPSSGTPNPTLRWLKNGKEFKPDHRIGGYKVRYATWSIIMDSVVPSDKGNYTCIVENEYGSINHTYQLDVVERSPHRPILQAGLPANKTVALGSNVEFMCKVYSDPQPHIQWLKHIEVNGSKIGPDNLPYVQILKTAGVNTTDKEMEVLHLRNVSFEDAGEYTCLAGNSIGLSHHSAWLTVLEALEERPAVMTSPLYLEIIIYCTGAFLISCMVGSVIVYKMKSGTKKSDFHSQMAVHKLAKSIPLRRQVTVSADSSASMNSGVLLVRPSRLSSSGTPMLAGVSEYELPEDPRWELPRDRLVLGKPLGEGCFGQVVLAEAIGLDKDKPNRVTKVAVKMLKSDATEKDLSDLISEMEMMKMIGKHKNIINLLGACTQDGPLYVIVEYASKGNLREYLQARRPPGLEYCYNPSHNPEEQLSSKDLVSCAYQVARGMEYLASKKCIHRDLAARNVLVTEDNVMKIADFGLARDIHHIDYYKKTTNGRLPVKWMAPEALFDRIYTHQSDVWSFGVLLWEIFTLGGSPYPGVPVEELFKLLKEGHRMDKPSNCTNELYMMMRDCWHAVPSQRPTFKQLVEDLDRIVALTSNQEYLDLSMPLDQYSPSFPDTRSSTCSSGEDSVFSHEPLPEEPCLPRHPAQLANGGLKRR
sequence,measurement,setting,value
SVVVPYEPPEL [TP53_Y220_V225L],SH2 binding enrichment,SHP2-C SH2,0.717
same,SH2 binding enrichment,Grb2 SH2,0.741
same,SH2 binding enrichment,c-Src SH2,0.683
same,phosphorylation enrichment,EPHB1,0.489
same,phosphorylation enrichment,Fes,0.869
same,phosphorylation enrichment,Fyn,0.494
same,phosphorylation enrichment,Jak2,0.811
same,phosphorylation enrichment,Hck,0.503
same,phosphorylation enrichment,AncSZ,0.905
same,phosphorylation enrichment,MERTK,0.424
same,phosphorylation enrichment,c-Abl (mouse),0.54
same,phosphorylation enrichment,c-Src,0.437
same,phosphorylation enrichment,FGFR1,0.459
same,phosphorylation enrichment,EPHB2,0.524
same,phosphorylation enrichment,FGFR3,0.666
same,phosphorylation enrichment,Fer (mouse),0.491
FADGVYQALEE [DUOX2_Y70_YF],SH2 binding enrichment,SHP2-C SH2,0.882
same,SH2 binding enrichment,Grb2 SH2,1.15
same,SH2 binding enrichment,c-Src SH2,0.75
same,phosphorylation enrichment,EPHB1,1.97
same,phosphorylation enrichment,Fes,1.3
same,phosphorylation enrichment,Fyn,3.65
same,phosphorylation enrichment,Jak2,0.979
same,phosphorylation enrichment,Hck,3.3
same,phosphorylation enrichment,AncSZ,1.49
same,phosphorylation enrichment,MERTK,1.38
same,phosphorylation enrichment,c-Abl (mouse),0.749
same,phosphorylation enrichment,c-Src,3.81
same,phosphorylation enrichment,FGFR1,0.696
same,phosphorylation enrichment,EPHB2,1.5
same,phosphorylation enrichment,FGFR3,0.666
same,phosphorylation enrichment,Fer (mouse),1.1
NDPMEYAKQHG [ASS1_Y163_L160P],SH2 binding enrichment,SHP2-C SH2,0.545
same,SH2 binding enrichment,Grb2 SH2,0.804
same,SH2 binding enrichment,c-Src SH2,0.457
same,phosphorylation enrichment,EPHB1,0.419
same,phosphorylation enrichment,Fes,0.876
same,phosphorylation enrichment,Fyn,0.389
same,phosphorylation enrichment,Jak2,0.86
same,phosphorylation enrichment,Hck,0.467
same,phosphorylation enrichment,AncSZ,0.769
same,phosphorylation enrichment,MERTK,0.465
same,phosphorylation enrichment,c-Abl (mouse),0.718
same,phosphorylation enrichment,c-Src,0.396
same,phosphorylation enrichment,FGFR1,0.415
same,phosphorylation enrichment,EPHB2,0.485
same,phosphorylation enrichment,FGFR3,0.527
same,phosphorylation enrichment,Fer (mouse),0.426
NAGDFYDLFGG [PTPN11_Y63_T59A_YF],SH2 binding enrichment,SHP2-C SH2,0.635
same,SH2 binding enrichment,Grb2 SH2,0.642
same,SH2 binding enrichment,c-Src SH2,0.497
same,phosphorylation enrichment,EPHB1,0.651
same,phosphorylation enrichment,Fes,1.16
same,phosphorylation enrichment,Fyn,5.68
same,phosphorylation enrichment,Jak2,0.971
same,phosphorylation enrichment,Hck,3.55
same,phosphorylation enrichment,AncSZ,1.11
same,phosphorylation enrichment,MERTK,2.72
same,phosphorylation enrichment,c-Abl (mouse),0.762
same,phosphorylation enrichment,c-Src,6.02
same,phosphorylation enrichment,FGFR1,0.455
same,phosphorylation enrichment,EPHB2,0.564
same,phosphorylation enrichment,FGFR3,0.769
same,phosphorylation enrichment,Fer (mouse),2.43
VEYAKYGSLQG [RET_Y809_R813Q],SH2 binding enrichment,SHP2-C SH2,4.76
same,SH2 binding enrichment,Grb2 SH2,0.852
same,SH2 binding enrichment,c-Src SH2,0.786
same,phosphorylation enrichment,EPHB1,0.505
same,phosphorylation enrichment,Fes,0.662
same,phosphorylation enrichment,Fyn,1.44
same,phosphorylation enrichment,Jak2,0.58
same,phosphorylation enrichment,Hck,0.846
same,phosphorylation enrichment,AncSZ,0.614
same,phosphorylation enrichment,MERTK,0.418
same,phosphorylation enrichment,c-Abl (mouse),0.523
same,phosphorylation enrichment,c-Src,1.44
same,phosphorylation enrichment,FGFR1,0.549
same,phosphorylation enrichment,EPHB2,0.438
same,phosphorylation enrichment,FGFR3,0.539
same,phosphorylation enrichment,Fer (mouse),0.458
KDDEKYLDVIR [MTM1_Y260],SH2 binding enrichment,SHP2-C SH2,0.64
same,SH2 binding enrichment,Grb2 SH2,0.874
same,SH2 binding enrichment,c-Src SH2,0.515
same,phosphorylation enrichment,EPHB1,0.461
same,phosphorylation enrichment,Fes,0.971
same,phosphorylation enrichment,Fyn,0.433
same,phosphorylation enrichment,Jak2,0.987
same,phosphorylation enrichment,Hck,0.501
same,phosphorylation enrichment,AncSZ,0.961
same,phosphorylation enrichment,MERTK,0.434
same,phosphorylation enrichment,c-Abl (mouse),0.689
same,phosphorylation enrichment,c-Src,0.409
same,phosphorylation enrichment,FGFR1,0.453
same,phosphorylation enrichment,EPHB2,0.49
same,phosphorylation enrichment,FGFR3,0.663
same,phosphorylation enrichment,Fer (mouse),0.405
GLETSYIEDNC [PAH_Y24_Q20L],SH2 binding enrichment,SHP2-C SH2,0.617
same,SH2 binding enrichment,Grb2 SH2,0.726
same,SH2 binding enrichment,c-Src SH2,0.539
same,phosphorylation enrichment,EPHB1,0.585
same,phosphorylation enrichment,Fes,0.937
same,phosphorylation enrichment,Fyn,0.525
same,phosphorylation enrichment,Jak2,0.873
same,phosphorylation enrichment,Hck,0.487
same,phosphorylation enrichment,AncSZ,1.04
same,phosphorylation enrichment,MERTK,0.497
same,phosphorylation enrichment,c-Abl (mouse),0.744
same,phosphorylation enrichment,c-Src,0.513
same,phosphorylation enrichment,FGFR1,0.655
same,phosphorylation enrichment,EPHB2,0.569
same,phosphorylation enrichment,FGFR3,0.564
same,phosphorylation enrichment,Fer (mouse),0.466
NYRPGYNNFYN [USH2A_Y467],SH2 binding enrichment,SHP2-C SH2,0.84
same,SH2 binding enrichment,Grb2 SH2,0.875
same,SH2 binding enrichment,c-Src SH2,0.614
same,phosphorylation enrichment,EPHB1,0.616
same,phosphorylation enrichment,Fes,0.705
same,phosphorylation enrichment,Fyn,0.567
same,phosphorylation enrichment,Jak2,0.651
same,phosphorylation enrichment,Hck,0.621
same,phosphorylation enrichment,AncSZ,0.697
same,phosphorylation enrichment,MERTK,0.551
same,phosphorylation enrichment,c-Abl (mouse),0.514
same,phosphorylation enrichment,c-Src,0.516
same,phosphorylation enrichment,FGFR1,0.637
same,phosphorylation enrichment,EPHB2,0.602
same,phosphorylation enrichment,FGFR3,0.606
same,phosphorylation enrichment,Fer (mouse),0.711
QIGRKYKKVRF [F8_Y442_R437Q],SH2 binding enrichment,SHP2-C SH2,0.622
same,SH2 binding enrichment,Grb2 SH2,0.675
same,SH2 binding enrichment,c-Src SH2,0.321
same,phosphorylation enrichment,EPHB1,0.902
same,phosphorylation enrichment,Fes,1.04
same,phosphorylation enrichment,Fyn,0.795
same,phosphorylation enrichment,Jak2,1.62
same,phosphorylation enrichment,Hck,1.19
same,phosphorylation enrichment,AncSZ,0.84
same,phosphorylation enrichment,MERTK,0.923
same,phosphorylation enrichment,c-Abl (mouse),0.502
same,phosphorylation enrichment,c-Src,1.03
same,phosphorylation enrichment,FGFR1,0.807
same,phosphorylation enrichment,EPHB2,0.44
same,phosphorylation enrichment,FGFR3,1.11
same,phosphorylation enrichment,Fer (mouse),0.836
